Assay results as given in patent publication US6518397B1, “Pharmaceuticals for modulating hormone responsiveness” (priority 1995, dated 2003).

What was measured:
[1] = tested on: calreticulin mRNA in MC3T3 cells; assay: Calreticulin mRNA levels in MC3T3 cells; type: cell-based, mouse
Procedure: Calreticulin expression levels in these cell types are determined at the outset by Western blot analysis. In addition to utilizing these stable expression vectors, we construct inducible calreticulin expression sense- and antisense-cDNA expression vectors driven by strong metal inducible promoters (Filmus et al., 1992). The inducible vectors allow us to turn calreticulin expression on or off at will. In the MC3T3 cells, 1,25,dihydroxyvitamin D3 has a proliferative effect on these cells at subconfluency, but when added to confluent, mineralizing cultures, it enhances the mineralization process. The transfected cells are analyzed for the level of calreticulin expression by Western blot analysis as described by us previously as well as by Northern blot analysis for mRNA levels. The effect of up or down regulation of calreticulin is determined in terms of the above mentioned responses to 1,25 dihydroxyvitamin D3. In addition, the effect on the expression of vitamin D responsive genes, such as c-fos and integrin b3 subunit (Xu et al., 1993) is determined by Northern blot and Western blot analysis. […] The luciferase activity in mock transfected versus calreticulin sense- and antisense-cDNA transfected cells (stable and inducible) is then be determined as described by us previously (see Example 6). […]

AP-1 = assay: Binding of AP-1 to DNA
[2] = molecular target: T1, DNA binding domain of recombinant rat androgen receptor (AR) / calreticulin (p60) (Homo sapiens, UniProt P27797); assay: Gel mobility shift (gel retardation) assay: calreticulin (p60) inhibition of AR-ARE binding and its reversal by peptides/antibody; settings: protein pre-incubated with AR 30 min at 4° C.
T1 construct: endogenous in cells
T1 sequence (P27797 18-417): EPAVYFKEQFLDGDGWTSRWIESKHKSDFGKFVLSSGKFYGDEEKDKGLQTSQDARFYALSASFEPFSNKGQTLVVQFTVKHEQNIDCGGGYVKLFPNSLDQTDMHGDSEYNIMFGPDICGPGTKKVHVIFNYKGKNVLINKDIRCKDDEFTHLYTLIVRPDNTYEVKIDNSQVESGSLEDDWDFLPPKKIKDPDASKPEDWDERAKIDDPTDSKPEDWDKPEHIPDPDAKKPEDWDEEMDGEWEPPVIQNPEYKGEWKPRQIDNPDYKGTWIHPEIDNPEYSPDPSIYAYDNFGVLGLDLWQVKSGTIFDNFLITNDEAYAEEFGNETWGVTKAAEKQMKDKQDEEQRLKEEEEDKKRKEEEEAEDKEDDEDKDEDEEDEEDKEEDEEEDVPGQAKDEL
Procedure: To determine whether p60 (calreticulin) could directly modulate the binding of nuclear hormone receptors to DNA via the KXFFX^1R [SEQ ID NO:1] sequence, the interaction of the DNA binding domain of recombinant androgen receptor with its hormone responsive element was analyzed by carrying out gel mobility shift assays.
(§1) As described in Rennie et al., 1993, DNA binding domain of recombinant rat androgen receptor was prepared as a GST-fusion protein using the pGEX-3X vector and purified by glutathione-agarose affinity chromatography. p60 (calreticulin) was purified by affinity chromatography on KLGFFKR-sepharose [SEQ ID NO:7], followed by gel electrophoresis as described in detail in Rojiani et al., 1991. […] Recombinant calreticulin (GST-fusion protein) was prepared as described by Baksh and Michalak, 1991. Gel retardation assays were carried out as described by Rennie et al., 1993. To analyze the effect of p60, or recombinant calreticulin, on receptor-DNA binding activity, the AR was pre-incubated with p60 for 30 min at 4° C. To analyze the effects of synthetic peptides, anti-calreticulin antibody, and non-immune IgG on p60 inhibition of AR-ARE binding, the peptide, antibody or IgG were pre-incubated with p60 for 30 min at 4° C. The androgen receptor preparation was then added to these mixtures and further incubated for 30 min at 4° C.
Affinity purified DNA binding domain of the recombinant rat androgen receptor (AR) was pre-incubated with or without the indicated concentrations of purified p60 at 4° C. for 30 min. After this pre-incubation the reaction mixtures were incubated with ^32P-labeled 26 base pair ARE (Rennie et al., 1993) (androgen response element), and analyzed by gel retardation assay. The sequence of the ARE used was [SEQ ID NO:28]:
Amino acids in the KXFFX^1R [SEQ ID NO: 1] sequence were modified. Androgen receptor and calreticulin were incubated in the presence of the modified peptides and allowed to interact with an oligonucleotide containing the androgen response element (the method of this assay is described in Example 3). The interaction was analyzed by gel mobility shaft assay (FIGS. 5A-5C).

[3] = molecular target: T2, calreticulin as used in the gel mobility shift assays of Examples 7 and 15 (Homo sapiens (Human), UniProt P27797 18-417); assay: gel mobility shift, PhosphorImager; reversal of calreticulin inhibition of AR binding to its DNA response element; competitor AR
T2 construct: Could be m1 or m2
T2 sequence: T1 sequence (P27797 18-417)
Procedure: as §1, with “To analyze the effects of synthetic peptides, anti-calreticulin antibody, and non-immune IgG on p60 inhibition of AR-ARE binding, the peptide, antibody or IgG were pre-incubated with p60 for 30 min at 4° C.” left out
(§2) This Table relates to the retinoic acid receptors (RAR/RXR) and the androgen receptor (AR). […] The data was quantified using a Phosphormager (Molecular Dynamics).

[4] = molecular target: T2, calreticulin as used in the gel …; assay: gel mobility shift, PhosphorImager; reversal of calreticulin inhibition of RAR/RXR binding to its DNA response element; competitor RAR/RXR
From the text: as §2

[5] = molecular target: T2, calreticulin as used in the gel …; assay: gel mobility shift; reversal of calreticulin inhibition of receptor-DNA binding; competitor VDR/RXR, reference RAR/RXR
Procedure: (§3) Example 7 Peptides Having Differential Specificities for Disrupting Different Hormone Receptor-Calreticulin Interactions To identify peptides having different specificities, we utilized gel mobility shift assays (see Example 3) in which known concentrations of purified recombinant androgen receptor, estrogen receptor, retinoic acid receptors (RAR/RXR and RXR/RXR) (Shago et al., 1994) and vitamin D receptor (Xu et al., 1993) were incubated with known concentrations of either recombinant calreticulin, or calreticulin purified by affinity chromatography on a KLGFFKR affinity column [SEQ ID NO:7] (see Example 3) in the presence of the respective ^32P-labelled DNA response elements and known concentrations of synthetic peptides based on the KXFFX[1]R [SEQ ID NO:1] sequence. In addition to the linear peptides, some peptides were cyclized by adding cysteine residues at either ends.

[6] = molecular target: T2, calreticulin as used in the gel …; assay: gel mobility shift; reversal of calreticulin inhibition of receptor-DNA binding; competitor RXR/RXR, reference RAR/RXR
Procedure: as §3

In the case of `C=C1/C(=C\C=C2/CCC[C@]3(C)[C@@H]([C@H](C)CCCC(C)(C)O)CC[C@@H]23)C[C@@H](O)C[C@@H]1O` [1,25,dihydroxyvitamin D3], the “Calreticulin mRNA levels” value [1] is reported as “upregulates calreticulin mRNA levels”.

B1: p60 (calreticulin): 60 kDa protein, calreticulin, purified by affinity chromatography on KLGFFKR-sepharose (protein)
chain: T1 sequence (P27797 18-417)
With B1 the “Effect on binding of AP-1 to DNA” value (AP-1) was “did not effect the binding of AP-1 to DNA” and the “Effect of protein on AR-ARE (receptor-DNA) complex formation” value [2] was “dose-dependent inhibition in the formation of this complex”.

B2: KLGFFKR synthetic peptide (peptide)
peptide: KLGFFKR
notes: Used free in solution and immobilised on sepharose; also called KLGFFKR-sepharose
In the case of B2, the “% Reversal” value [3] is reported as 62%, the “% Reversal” value [4] is reported as 100% and the “fold potency against VDR/RXR compared to RAR/RXR” value [5] is reported as 10 fold. For the same molecule, the “fold potency against RXR/RXR compared to RAR/RXR” value [6] was 4 fold.
